Reference: publication PMC9470112 (2020)

T1: EBV LMP2 (latent membrane protein 2) peptide on HLA-A*01:01 (human)
T1 peptide: ESEERPPTPY

B1: EBV-LMP2^ESE-specific TCR from donor A (TCR)
alpha TRAV12 TRAJ3 CDR3: CVVTGYSSASKIIF
beta TRBV6-3 TRBJ2-1 CDR3: CASSWEGQYNEQFF
B2: TCR-C1 (TCR)
alpha TRAV30 TRAJ45 CDR3: CGTGSGGGADGLTF
beta TRBV6-3 TRBJ2-1 CDR3: CASSPEGVFNEQFF
B3: TCR-B1 (TCR)
alpha TRAV12 TRAJ3 CDR3: CVVTGYSSASKIIF
beta TRBV6-3 TRBJ2-1 CDR3: CASSSEGQFNEQFF
B4: EBV-LMP2^ESE-specific TCR C^2 from donor C (TCR)
alpha TRAV30 TRAJ45 CDR3: CGTEDGRGGADGLTF
beta TRBV6-3 TRBJ2-1 CDR3: CASSYGIYEQFF
B5: EBV-LMP2^ESE-specific TCR from donor E (TCR)
alpha TRAV26 TRAJ23 CDR3: CIVSGGKLIF
beta TRBV12-3/4 TRBJ2-5 CDR3: CASSSSWTSGSGETQYF

Molecular target: T1, EBV LMP2 (latent membrane protein 2) …
Experiment: multimer staining

Row | Binder | binding result
1 | B1 | recognises
2 | B2 | recognises
3 | B3 | recognises
4 | B4 | recognises
5 | B5 | recognises
